Experimental findings from publication PMC7617879 (2022) are described below.

The assay addresses MMP-14 catalytic domain (Homo sapiens, UniProt P50281). Description: enzyme inhibition assay.

B1: N-TIMP2D-Cys-PEG N-terminal domain (protein)
chain: CSCSPVHPQQAFCNADVVIRAKAVSEKEVDSGNDIYGNPIKRIQYEIKQIKMFKGPEKDIEFIYTAPSSAVCGVSLDVGGKKEYLIAGKAEGDGKMHITLCDFIVPWDTLSTTQKKSLNHRYQMGC
modifications: PEGylated
B1: the Ki (commonly the equilibrium dissociation constant of an inhibitor or competing ligand from its target) came to 180 pM.
